The source of these data is article PMC3906316 (Journal of Medicinal Chemistry, 2013).

This experiment has as its target bromodomain of CREB (cyclic-AMP response element binding) binding protein (UniProt Q92793-1). Briefly: AlphaScreen or HTRF. The note with it: both partners purified. Background: Bead proximity is the source of the signal in Alpha formats.

Chain of bromodomain of CREB (cyclic-AMP response element binding) binding protein (Q92793 1081-1197): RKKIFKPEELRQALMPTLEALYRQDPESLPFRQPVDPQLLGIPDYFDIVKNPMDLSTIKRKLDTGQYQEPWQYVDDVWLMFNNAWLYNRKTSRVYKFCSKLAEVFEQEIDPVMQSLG

B1: H3K56(Ac) peptide (peptide)
peptide: ALREIRRYQKSTELLIRKLK
modifications: K(Ac) at peptide position 10 (H3K56); C-terminal K(Biotin)
Take B1: the binding result was “binds”.
